# Assay results reported in the DeepSol protein solubility set.
# Assay: soluble on expression in E. coli; label from the status in PepcDB or PDB records
row,Sequence,soluble on expression in E. coli
1,MVLEVNQAIVNESLQTEQVMEQLSSTVDVIVDNIEKYTNAARYGKGNNYALNNLRTAVQNQFPLVDWLLSTSLSQMIENAWQNGSLPTVTDEDGNVYLKAPLNVFTTPPKDTKGECCWLPFDIAACGGKAPINILCLKDCVDMLNHLLDRKLKVQSNDLIGFFKQAGQTYEEVRDFMNRESMAFYTANTIVNGQLDVTTPILKKFHGLMEILKRPEVFKMQGTNILAAFDSIGYRMDVLGGSFIFAAHPLTVASIKNAIRPNRYGILPDGWTINGESIFYKGAQVLPDKTVPVDVENGTGVIWQLSGESVGVFLGTTLRPAEDYIIRNQFTTTNDVNKGCATECDIYYNLGSVVTNNVARLAVITDVPLAAGINAYSLANLLDRVYVETLAP,not soluble
2,LYVGSLHFNITEDMLRGIFEPFGKIDNIVLMKDSDTGRSKGYGFITFSDSECARRALEQLNGFELAGRPMRVGHVTERLDGG,soluble
3,MGSDKIHHHHHHMYWVSEDNVAGKPGKVLYVILPTIGCYRYRIGKPCYMCSYPAQAPRKTSQERIFGYFLEAIGKIKGKEGRFGIRIFTSGSFFDSSEVRRGTRIKIFQEIAKLDNVFEVVVETRSEIIREEWVRELVEIIEGKWFEVALGLETANDDIADISINKGSTFRDFVRASEIIHKAGAKVKTYLLFKPIFLSEGDAIEEMKRSIELAEPYTDTFSINMTNIQKGTLYEKIWERGEYRTPWLWSVVEVLKWAKRKFPGKRFLSDPVGAGSVRGPHNCGDSRDKPVERAIRKFSTTQDLRYLEVSGDCIEEWKYIVSQGLLDWQLIKSQVSPFSTE,not soluble
4,MYLACLAKFSQNVELRKMLFRTQDMYLVEASGNDAIWGNGIWKEDKRSDDVANWHGTNYLGEILDRIRGELIGKPEFAAEKEAVQLESLEQRIQMLMA,not soluble
5,GPGSMSLIFFCIIPHPFTRTKCSKVSIIMQMLAPGAFFNALKVRGVTHFFGVPDPILKYFCAFVASHTTPKEHIITANEGNAVAMAAGYHLATGGLPLVYMKNSGLGDALNPLISLTHAEACSIPMFIVVGWRGAPDAGNELPCAAEGRLTEGILRAAEVPYIILSSACGNGEQSMETALDMALKHVHNSRTPYAFLVPPNFFEECAYEGVGEGIAELPMTRREAVEQALRQIDRGDIVVGAASFLAREIFEVQECAGMRHGPQFFPVGSMGHCSSVAAGIALAKPERQVFCFDGDGAFLMHMGSSATIGGVAAIHLIGTGETSLMRNYKHVVFNNGSHDSAGGQPTVSFDVSLTQVASACGFRTVREEPVMDLGETVRALQELKKAEGPAFLEVFVRRGGHSNPQCELPSLDESKQALTNCLRG,not soluble
6,SQEVMKNLSLNFGKALDECKKEMTLTDAINEDFYNFWKEGYEIKNRETGCAIMCLSTKLNMLDPEGNLHHGNAMEFAKKHGADETMAQQLIDIVHGCEKSTPANDDKCIWTLGVATCFKAEIHKLNWAPSMDVAVGEILAEV,soluble
7,MGSDKIHHHHHHMTWDQSPLRGGEPIVSVQSPFEAIERGPKMEMRDIDFLIIGATKSATTWLQQSLQQDPGIFMPDPELHYFSRYYERGDEWYLEHFAGQEHRRLRGEKSNSYMDVPEAAERIKEKLPEARLIAHVRNPVDRAYSDYCMLYRRAEVGRDIAQYLDPRQGAGGRFLNGGLYYQQLQGYLDRFPAEQILVLLYEDLKIDARAQLARVRGFLGLEADVPLKPLAKKVKDKSEPVVNPTLRRLLRPLKPVAAPFRQNTGFKKLRSLIAGELQYAPLSHDLRARMTDYFAPETEKLGALVGRDLTDWLRNRSPEK,not soluble
8,MRWAPVTYTVGSSSVGSFPAVQWRGINTPTQIVFSLSSSEVRSYRLRIFVPLAQVSARPQIAVNARWNGPVPAAPNQPKTRGITRGTTRGNNTLCEVDIPATALQAGSNRIAISLASGSPDNGFLSPAIVYDSVQLVAPLEHHHHHH,not soluble
9,GPGSMERTPTARIRDVIDSQLALRSSGFLPGNSTPDQLLHLRAAVHRNAPQHRTAAYFVDHANAFGTVGPDAVILEMRRLSIPNRIARWSAACLNSTSAVVCIDKLTPSSRTLTRGAPQGTVLAPIMFVVVMQSRCSCPSNVPYFAEGSSLMTALSPHSRATGMRSTRPQKKA,not soluble
10,MAHHHHHHMTTADDVCGAYTLSHCDGKVAPTKATLTIHRCGEILTAHVTVVNDLRGTVQYENCHIVGSLHSTGNEASPAQESVEQALSKGFADGFNVVVEMNQVLLKNANSAFVFARLSKLSDLNGEHAIIAINDQPPNQEMTMIFTPDGNGGSFVAANIANSLRGNCQIDAGLLRGDLATTQSEADESLMQVEKLISEGFQQGFHVCMNESGILLQSSEANIQLCRIVSHSDLEGEYVLKSFNGAPVPTRNQPSIVFKSVNTNEVEISIVVANRIRGTAALNQNVLSSEEPLMSTRMMGTEEESQLENAFNVGFQYGLETISHGNELTLKNQDCKFVLVKAAAPAAQHGGPTYKGTYCNKCFKTEGNGLLFRIVNEHEKKWAFYNDTEDLRIRVRATFGARSKIEALDNANMYKDDDGRYVVEVTVDPQATEMFIQGDVNGFRVLYDAQPI,not soluble
11,MTTVFDVPAAEMIDKLAGILKENENVVPPQWAGNVKTGVHKDLPPTNDDWWYVRCAAVLRKIYTDGPIGIERLRSVYGGKKDNGSQPYHKAKGSGSIARKSVQQLEAAGFLQKVKDGRTVSAKGRSMMDNAAHELKQELLEKIPELAKYLEHHHHHH,soluble
12,MAGGPPKALPSTGPQSLRDMPHPLAGSSSEEAVGGDSTPSPDLLMARSFGDKDLILPNGGTPAGTASPASSSSLLNRLQLDDDIDGEARDLFVTVDDPKKHVCTMETYITYRITTKSTRVEFDLPEYSVRRRYQDFDWLRNKLEESQPTHLIPPLPEKFVVKGVVDRFSEEFVETRRKALDKFLKRITDHPVLSFNEHFNVFLTAKDLNAYKKQGIALLSRVGESVKHVTGGYKLRSRPLEFAAISDYLDTFALKLGTIDRIAQRIIKEEIEYLVELREYGPVYSTWSALEGELAEPLEGVSACIGNCSTALEELTDDITEEFLPVLREYVLYSDSMKGVLKKRDQVQAEYEAKLEAVALRKEERPKVPADVEKCQDRMECFNADLKADMERWQSNKRHDFRQLLVGLADKNIQYYEKCLMAWESIIPLLQEKQETK,soluble
13,MYCHAKLKNISQHTVISAHLFLPDYSPMNRDSFYPAIACFPLLLMLAGCAPMHETRQALSQQTPAAQVDTALPTALKMVGQTANGGWSITIINSLPLEHHHHHH,not soluble
14,MNNLALQSLTESIAIKYFGKAFKHEVYYNKRLRTTGGRYILSSHNIEINPKQYEMFGEKAVIDIIKHELCHYFLHLAGEGYQHRDKAFKSLSAKVGAPRFCTPTESYQDRANYKYRCIYCEQEFIRIKRVNLEKMRCGRCGGILKLLQTRKLEHHHHHH,not soluble
15,MGSDKIHHHHHHMKKGFSALVEHNGYRVLVDTGTDGKILLNNMEGLGIDPNSIDALFLTHGHYDHTGGIAELLKARKDTLDVYAHPRIFEKRIALKPKRRDIGIPFSQEELESLGAIFHLNDKALEFLPGLISSGEIKRETWDRAVGYLLNNEKDPVRDDMALLIDLGDKIAVITGCGHSGILNIAKHAVEISKKPIRALIGGFHLRGASITILEDAVRGLKELNVEMLYPGHCTGIDEYAYLRMKLKAEHLNVGKEIVIK,not soluble
16,MGSDKIHHHHHHMTLEHRWTGAISRLDLASGVLQQPDGDWVDEQLHHGTKVVVILRGAMRALIDGCGSEFSIAGPTVCVIRAPADASGRQMITADEPLHYVMVKAAFEPGSEADRERDPLAPLFCTDRPSLQHIEAPRALQALCTQLEVCPFVGAARDLFLSAKAIEILALACDAVETNIATETLRPSLGDVERLKKARAILLERLGAPPNLPALAAAVGMNPRKLTDGFQAAFGTTVNDFLQDARLNEAYRLLSSGATNVSEAAHRVGYTPAYFSAVFRKRFGISPRDLL,not soluble
17,MSEPIDILIAGAGIGGLSCALALHQAGIGKVTLLESSSEIRPLGVGINIQPAAVEALAELGLGPALAATAIPTHELRYIDQSGATVWSEPRGVEAGNAYPQYSIHRGELQMILLAAVRERLGQQAVRTGLGVERIEERDGRVLIGARDGHGKPQALGADVLVGADGIHSAVRAHLHPDQRPLSHGGITMWRGVTEFDRFLDGKTMIVANDEHWSRLVAYPISARHAAEGKSLVNWVCMVPSAAVGQLDNEADWNRDGRLEDVLPFFADWDLGWFDIRDLLTRNQLILQYPMVDRDPLPHWGRGRITLLGDAAHLMYPMGANGASQAILDGIELAAALARNADVAAALREYEEARRPTANKIILANREREKEEWAAASRPKTEKSAALEAITGSYRNQVERPRLEHHHHHH,soluble
